# B1: 24 bp T7 promoter oligonucleotide (dsDNA)
# DNA 1: ATTAATACGACTCACTATAGGACT
# DNA 2: AGTCCTATAGTGAGTCGTATTAAT
# Assays:
# [1] = biological target: T7 RNA polymerase mutant GP1(lys222) (Bacteriophage T7, UniProt P00573 SEQ:1-883, E222K); assay: EMSA; +/-5e3; 20-fold below wild-type; more easily disrupted by lambda DNA; 25 C; conditions: label: 32P
# Protocol: (§1) FIG. 8: Binding of a T7 Promoter by Wild-type T7 RNA Polymerase and GP1(lys222). […] Lane 1-no RNA polymerase, 5 µM promoter; Lane 2-26.5 nM GP1(lys222), 5 µM promoter; Lane 3-132.7 nM GP1(lys222), 5 µM promoter; Lane 4-26.5 nM GP1(lys222), 5 µM promoter, 3 µg lambda DNA; Lane 5-132.7 nM GP1(lys222), 5 µM promoter, 3 µg lambda DNA; Lane 6-12.9 nM T7 RNA polymerase, 5 µM promoter, Lane 7-64.7 nM T7 RNA polymerase, 5 µM promoter; Lane 8-12.9 nM T7 RNA polymerase, 5 µM promoter, 3 µg lambda DNA; Lane 9-64.7 nM T7 RNA polymerase, 5 µM promoter, 3 µg lambda DNA. Complex=Position of the enzyme/promoter complexes. Promoter=Position of the unbound promoter oligo.
# (§2) 12. Estimation of Promoter Binding. The ability of T7 RNA polymerase and GP1(lys222) to bind a T7 promoter was determined by a gel-retardation method [Muller, D. K., et al., *Biochemistry*, 27: 5763-5771 (1988)]. […] The promoter/polymerase complexes were then cut out of the gel, and the amount of promoter contained in the complexes was measured by liquid scintillation.
# [2] = biological target: T7 RNA polymerase (wild-type) (Bacteriophage T7, UniProt P00573 SEQ:1-883); assay: EMSA; +/-2.2e5; 10 mM K phosphate pH 7.8, 1 mM EDTA, 20 mM NaCl, 25 C; conditions: label: 32P
# Protocol: as §1, §2
binder,measurement,setting,value
B1,Ka,[1],14000 M⁻¹
same,Ka,[2],280000 M⁻¹

# Reference: patent publication US5385834, “Mutant T7 RNA polymerase GP1(lys222) exhibiting altered promoter recognition” (Georgia Tech Research Corporation)
